Target: BirA*-FLAG tagged GSK-3β (UniProt P49841 1-420)
Test: proximity labelling

BirA*-FLAG tagged GSK-3β, sequence (P49841 whole entry): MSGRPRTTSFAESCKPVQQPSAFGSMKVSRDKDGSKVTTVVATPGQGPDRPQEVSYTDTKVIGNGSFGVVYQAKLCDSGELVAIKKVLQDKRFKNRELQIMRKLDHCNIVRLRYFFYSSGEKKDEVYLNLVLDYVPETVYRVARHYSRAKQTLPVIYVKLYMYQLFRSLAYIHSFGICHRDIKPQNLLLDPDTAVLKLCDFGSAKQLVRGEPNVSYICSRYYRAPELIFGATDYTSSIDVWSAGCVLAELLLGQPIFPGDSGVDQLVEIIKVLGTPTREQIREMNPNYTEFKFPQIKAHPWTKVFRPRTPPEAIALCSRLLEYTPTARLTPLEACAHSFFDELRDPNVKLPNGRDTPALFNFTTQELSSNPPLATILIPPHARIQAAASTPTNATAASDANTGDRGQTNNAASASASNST

fold signal intensity against the GSK-3α bait (normalised to bait level): ~4 fold
B1: MISP (natural protein)
chain: MDRVTRYPILGIPQAHRGTGLVLDGDTSYTYHLVCMGPEASGWGQDEPQTWPTDHRAQQGVQRQGVSYSVHAYTGQPSPRGLHSENREDEGWQVYRLGARDAHQGRPTWALRPEDGEDKEMKTYRLDAGDADPRRLCDLERERWAVIQGQAVRKSSTVATLQGTPDHGDPRTPGPPRSTPLEENVVDREQIDFLAARQQFLSLEQANKGAPHSSPARGTPAGTTPGASQAPKAFNKPHLANGHVVPIKPQVKGVVREENKVRAVPTWASVQVVDDPGSLASVESPGTPKETPIEREIRLAQEREADLREQRGLRQATDHQELVEIPTRPLLTKLSLITAPRRERGRPSLYVQRDIVQETQREEDHRREGLHVGRASTPDWVSEGPQPGLRRALSSDSILSPAPDARAADPAPEVRKVNRIPPDAYQPYLSPGTPQLEFSAFGAFGKPSSLSTAEAKAATSPKATMSPRHLSESSGKPLSTKQEASKPPRGCPQANRGVVRWEYFRLRPLRFRAPDEPQQAQVPHVWGWEVAGAPALRLQKSQSSDLLERERESVLRREQEVAEERRNALFPEVFSPTPDENSDQNSRSSSQASGITGSYSVSESPFFSPIHLHSNVAWTVEDPVDSAPPGQRKKEQWYAGINPSDGINSEVLEAIRVTRHKNAMAERWESRIYASEEDD

Source: publication PMC9990120 (Journal of Proteome Research, 2023)
